# Experimental data from patent US20050142582.
# Test system: USF1 (upstream stimulatory factor) (Ciona intestinalis)
# Assay: SPR
# Conditions: binding good, dimer
# USF1 (upstream stimulatory factor) (Ciona intestinalis), sequence (chain, as listed by the source): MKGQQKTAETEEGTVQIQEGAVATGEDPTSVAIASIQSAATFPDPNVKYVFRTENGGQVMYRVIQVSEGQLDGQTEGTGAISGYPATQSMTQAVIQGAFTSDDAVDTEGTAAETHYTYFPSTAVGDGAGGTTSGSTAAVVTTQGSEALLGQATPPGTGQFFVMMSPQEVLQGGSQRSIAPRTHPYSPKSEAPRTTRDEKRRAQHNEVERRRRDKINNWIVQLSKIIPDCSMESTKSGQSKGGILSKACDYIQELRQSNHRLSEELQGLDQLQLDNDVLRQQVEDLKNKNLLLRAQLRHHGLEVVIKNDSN
row,Sequence,Kd [nM]
1,GGTATTGAGGGTCGCATCGGCAAAAAGGATTGCCCAGGTCTGCTGTCTAGCCGGATTCGATGGCTCTAACTCTCCTCT [6H1],36
2,GGTATTGAGGGTCGCATCGGCTTCAGGTTGGTCTGGTTGGGTTTGGCTCCTGTGTACGGATGGCTCTAACTCTCCTCT [6H5],176
